How the values were obtained:
purified protein [1] = substrate: NC(=O)C1=CN([C@@H]2O[C@H](COP(=O)(O)OP(=O)(O)OC[C@H]3O[C@@H](n4cnc5c(N)ncnc54)[C@H](OP(=O)(O)O)[C@@H]3O)[C@@H](O)[C@H]2O)C=CC1; assay: purified protein; type: biochemical, Caenorhabditis elegans; conditions: NADPH varied 10 µM to 1.5 mM, excess FAD, 25 mM sodium phosphate pH 8.5, 30 °C, varied: cofactor
purified protein [2] = substrate: N[C@@H](Cc1c[nH]c2ccccc12)C(=O)O; assay: purified protein; type: biochemical, Caenorhabditis elegans; conditions: 0.5 mM NADPH, excess FAD, 0.04 µM FMO-2, 25 mM sodium phosphate pH 8.5, 0.5 mM DETAPAC, 30 °C

B1: FMO-2 (CeFMO-2) (Caenorhabditis elegans) (protein)
chain: MGNKRVAVIGAGASGLPSIRHGLLYGFDVTCFEASDDIGGLWRYKSHETNESSVMKTTVINTSKEMTAYSDFTPQENLANFMHNNEMLNYFKSYAEHHGLMKHIKLRHRVLNIERSKNYDNDGTWKVIYQTPEEKTLEEIFDGVLVCSGHHAIPHWPKPFPGQNEFKGRIVHSHDYKDHKGYEDKVVVVVGIGNSGIDVAVEQSRIAKQVYLVTRRGTWLIPKLETRGLPFDIIMNTRFFSLYKLFPQAMLNSLVEYRINQRIDHDLYGLKPAHRVFSAHPSLNDELPNRIANGTVRIKPNIKKFDGYAIHFEDGTIVPHVDEVVMSTGFSFEFNLIEHGKLVPVSENEVDLFKYMFPVATSDHNSLCIIGLIQPFGSIMPVSEQQARVFFANMVSGNNLIPKKSQMSEDVLNKKEAMAQQFVKSRRHTIQVDYIPYMDELAELIGCQVPLLRTLFTDPVLGLRLFFGPNAGYCYRLAGPHTWNGARNAILTIDQRVRMATTTKPEPTNYTVPLVISSIILLLVIYFVM
notes: purified FMO-2 protein purchased from GenScript; assayed with excess FAD
Km (purified protein [1]): 2500 ± 1240 µM | kcat (purified protein [1]): 264 ± 98 s⁻¹ | Km (purified protein [2]): 880 ± 430 µM | kcat (purified protein [2]): 9.7 ± 1.5 s⁻¹

From PMC9894935, “FMO rewires metabolism to promote longevity through tryptophan and one carbon metabolism in C. elegans” (Nature Communications, 2023)
